From a protein production outcome set (Wang et al. 2014)

Assay: label from the status in PepcDB records

Row | Sequence | protein production
1 | KVVLYARVSSKQKDELVNQVKYLEEQVKEYDLVITDIGSGLNMKRKGFLKLLRMILNNEVSRVVIAYPDRLVRFGFEILEETCKAHGCEIVVLNQEEKEEELVEDLISVLVSFSEKLHGMRSHEYEKVKKCAEELKN | failed
2 | KYANGTFFTYRPEAWDWMYTVAEEFDTIVAGLFGLITGGLLSVDSIAGEFENGTISRLYSLPINRWEIYFGKVIEKI | failed
3 | KYNPVVNPERALERRNWILGRMLQLGYINQTQYQQAVAEPINLDMPDRGVSNRYPYIGEMVRAELVEKFGEQAVDSGY | failed
4 | KYPFLREAGSSFKDRDVTKMSDLIATWDGQDIKGPALIGVPLSKSSISHSGASFAPGTIRQALKHSSAYSAELGEHVVSELLYDLGDIDIHVTDIVKSHHHIFQTMHALLSDHPDWVPLILGGDNSISYSTIKAIAQTKGTTAVIQFDAHHDVRNTEDGGPTNGTPFRRLLDEEIIEGQHLIQLGIREFSNSQAYEAYAKKHNVNIHTMDMIREKGLIPTIKEILPVVQDKTDFIFISVDMDVLDQSHAPGCPAIGPGGLYTDELLEAVKYIAQQPNVAGIEIVEVDPTLDFRDMTSRAAAHVLLHALK | failed
5 | LAELFEKAAAHLQGLIQVASREQLLYLYARYKQVKVGNCNTPKPSFFDFEGKQKWEAWKALGDSSPSQAMQEYIAVVKKLDPGWNPQIPEKKGKEA | not failed
6 | LDKMSKKTRQAIRTSKNKGVDIQFGSHELLEDFAELMKKTEDRKGINLRGIDYYQKLLDTYPNNSYITMASLDVAKRLEKIEKECQIAQSERIKSLELNREKKVKQHQGTIDRLNKEIDFLKEAQKAYDRDIIPLAATLTLEFGNTSENIYAGMDDYFKSYSAPIYTWFETAQRAFERGNIWQNMGGIENDLSGGLYHFKSKFEPII | failed
7 | LDQILRATVEEVRAFLGTDRVKVYRFDPEGHGTVVAEARGGERLPSLLGLTFPAGDIPEEARRLFRLAQVRVIVDVEAQSRSISQPESWGLSARVPLGEPLQRPVDPCHVHYLKSMGVASSLVVPLMHHQELWGLLVSHHAEPRPYSQEELQVVQLLADQVSIAIAQAELSL | not failed
8 | LDRAYLRVENQRYRDKLEAANRELQASLNLLQEDQNAGRQVQMNMLPVTPWSIEGLEFSHRIIPSLYLSGDFVDYFRVDERRVAFYLADVSGHGASSAFVTVLLKFMTTRLLYESRRNGTLPEFKPSEVLAHINRGLINTKLGKHVTMLGGVIDLEKNSLTYSIGGHLPLPVLFVEGQAGYLEGRGLPVGLFDDATYDDRVMELPPSFSLSLFSDGILDVLPGATLKEKEASLPEQVAAAGGTLDGLRQVFGLANLAEMPDDIALLVLSRNLA | failed
9 | LDSELELPAGWEKIEDPVYGIYYVDHINRKTQYENPVLEAKRKKQLE | not failed
10 | LEEVQLVVEPEGGAVAPGGTVTLTCEVPAQPSPQIHWMKDGVPLPLPPSPVLILPEIGPQDQGTYSCVATHSSHGPQESRAVSISIIEPGEEGPTAGSVGGSGLGTLALALGILGGLGTAALLIGVILWQRRQRRGEERKAPENQEEEEERAELNQSEEPEAGESSTGGP | not failed
11 | LEKNDLVYMQRAFELNDKVAKDIMIDRTQLVVIDITSTVKEALNVYLQERFSRLPVVADNDKDKVLGYVYNYDLTRQQQVDSSVRVDKLIRDISTTPETTPITQVLQQMIKKRTPIVVVVDEYGGTSGIITDKDIYEEL | failed
12 | LELLEALSLPVWIFDIDHRRVFWANEAALQVWGAGSLLELQTRDMARDMSVSVAQRLAQYQQDFEREGASFVESWTLYPNGRPSVLKVKFRGIRVNGRMLMFCEAQN | failed
13 | LEPRKKAEEALRKSEERFAKAFRMAPVPSLVLYGDDLQALDINQAFSETFGYQAEELLGESTVACGLWQDGGAERLGELLAQSGSVRNVQLRLQHKDRNGLDCLVSAEAVSLNEQDCVLVALLDIS | not failed
14 | LETSWIKPGQASWEWWNDAAPYGPDVNFVSGYNLETYKYYIDFASKYGIRYIIMDEGWAKSTRDPYTPNAKVDVHELIRYAEKKNVGIVLWLTWLTVENNMDLFKTFSEWGVKGVKIDFMDRSDQWMMNFYERVAAEAAKYKLFVDFHGSVSPKGLEYKYPNVLSYEGVRGMEQMGGATPDNSIFMPFMRNAVGAMD | not failed
15 | LFQRVLYATDFSENATRAFDAFQYLRHATQEATLVHVESPKDATSEADPAEQLASLADTLSQWDIETNVEVRRGDPAEEILDVEAAVTPTTTLVGSRGQSRMRRLLLGSVSEDIIAQATGNVYLVPPP | failed
16 | LGLVCLTVGPEVRFRTVTLSRYRALSPAEREAKLLDLYSSNIKTLRGAADYCAAHDIRLYRLSSSLFPMLDLAGDDTGAAVLTHLAPQLLEAGHAFTDAGVRLLMHPEQFIVLNSDRPEVRESSVRAMSAHARVMDGLGLARTPWNLLLLHGGKGGRGAELAALIPDLPDPVRLRLGLENDERAYSPAELLPICEATGTPLVFDAHHHVVHDKLPDQEDPSVREWVLRARATWQPPEWQVVHLSNGIEGPQDRRHSHLIADFPSAYADVPWIEVEAKGKEEAIAALRLMAPFKKD | failed
17 | LIIFCLLSVVAAAAYFSFSHWAIRHETLTFFDESRGRPVAIDLAVRRDAEMKAEAGMVTLPVAVVSHGNTVKNTEYSFLANVLAARGYLVASIQHDLPDDKPLMTVAGSLYVGRLAVYERGEKNIFFALKELKKLEPNADYDHLTLVGHSNGGDISMFFAQQHPEMVRRVVTLD | failed
18 | LKVLTNKASVMLFMKGNKQEAKCGFSKQILEILNSTGVEYETFDILEDEEVRQGLKTFSNWPTYPQLYVRGDLVGGLDIVKELKDNGELLPILKGE | not failed

Row | Sequence | protein production
19 | LLGELNEWLQSCRSLEELFAMVSRFMEHILPDAEGSLYVYSNSRDVLDGSAGWNGGAFKDHIHPEACWGLRRGRSYEYGASEVDFVCDHAEPHDGRPYFCFPVLAHGETVGLMHLRAQPGAEAEFSASKRLAQMCAEQISMAIANVRMRDQLHDQ | failed
20 | LLHRTFMADAGWSDLKAFEVILRHIPHDAALHAANSTPVRYLQLFEHAHYAGGEWSNRGTNGIEGATSTAMGFSEVYSGTTLLITGDLSFMYDSNALWMPYVNGRIRVIVMRNGGGGIFRFIPGPDSLKELETCFETPLEVPVREMAGAYGWRYMKAVSAEELETVLPSFFASGDRAVLLEVETPRFENAPVLKSYFTYISGESYPVNR | failed
21 | LLKVEFYKLKRSKVFYLFIVLMIMQSMFVLIPIKENYLLNKTGQDMFLQSFPLQEFIFNTLIIGAFGYFIGKEFHSGYIKNLIVSGHKRINIVLSKAIVFCIGVAIISFIFPICTFVINSIRNGYGEKYSVEYMFEVSVIMLFVYLAIGSIVTMISFITKNIAITIALFYLI | failed
22 | LLTSQIVDQYAEHIFYNSGAVGMALVVIDNNQVVNRSFGETQPGNNIRPRPDSLIRIASITKLMTSEIMVKLADDGIVKLTDPLKKYAPKGVNVPSYSAKQPIRLLHLASHTSGLPREQPGGPQKRPVFTWPTKDNRWQWLKLAKVTVPPGVKAAYSNLAYDLLADALSRAAGKPYAHLLRDKITAPLGMKNTTLTPTAEQCKRLMIGVGSSRCGNTVAAAGSGGIYSTPEDMQHWMQQFLASDNSAPKRSAKREQALYFQRGDLVSLKGMDVAGQADALGLGWVYMAPKADLPGIMQKTGGGGGFITYMAMVPEKNIGVFVVVTRSQLTKFSNMSDGVNQLVAELVK | not failed
23 | LPPKKFGNPGERLRKKKWDLSELPKFEKNFYVEHPEVARLTPYEVDELRRKKEITVRGGDVCPKPVFAFHHANFPQYVMDVLMDQHFTEPTPIQCQGFPLALSGRDMVGIAQTGSGKTLAYLLPAIVHINHQPYLERGDGPICLVLAPTRELAQQVQQVADDYGKCSRLKSTCIYGGAPKGPQIRDLERGVEICIATPGRLIDFLESGKTNLRRCTYLVLDEADRMLDMGFEPQIRKIVDQIRPDRQTLMWSATWPKEVRQLAEDFLRDYTQINVGNLELSANHNILQIVDVCMESEKDHKLIQLMEEIMAEKENKTIIFVETK | failed
24 | LQVGKVYIFGSGHVARALVPILNYLSFYCVVVDDRPEFLTAQAFPQAEELRVIPLENLAAFIEITADDYGIVITRGHNFDFIVAKQLLETPAKYIGVMGSKHKIASQVRRLKEVGYTMTEIERIFMPIGLDIAAETPEELAISIAGELIQQRYQ | failed
25 | LRARTYGEGGFRVERVLEERPAFTRVQFSYLSDGLRVHGFANLPKGRGPFPVVVVLHGYVEPSRYRLLAYTTPYADFLAERGYLVLHPNFRGHPPSEGAPAQGLRHVYAVDVLNLLAEVRRGAFPQADPAR | failed
26 | LRKMIALIHKDYAKNLRLETLASVFNYNRAYLGKLFKNYTGEYFNTYLDKVRIENGKRLLQKGYKVYEVAEKIGYANVDYFHRKFKKYVGVSPSTFRKR | not failed
27 | LRKMIALIHKDYAKNLRLETLASVFNYNRAYLGKLFKNYTGEYFNTYLDKVRIENGKRLLQKGYKVYEVAEKIGYANVDYFHRKFKKYVGVSPSTFRKRHDHLQVYHD | failed
28 | LRQSQQMLQLVMDTIPHSVFWKDRNSVFLGCNRNFAIMVGYEHPENLIGKTDYDFLPDPRNADLYRQCDARIIETNNPEYHIIEPMLAPDGQQIWLETNKVPLHDPEGNVVGVLGTFEDITERKQVQEA | failed
29 | LSANYAENLQAQQRSAQRLEHQAWLRTGQTQLAQQVLGQLTLPMLGENILRFFASYLGSVVGAVYVRDEHGRLVRVACYGLSTEEQAREQIESDHHGLLAQAVREGRLLRLEELPEDFYRLSSGLGSGLPRSALLMPATEDGQINGVIELGFLRPLQERDEELLERVGGNLGMSIESA | failed
30 | LSDKLMERLKERAEGIFVSGPPGSGKSTFVAALAEFYRSQGKIVKTMESPRDLQVSKEITQYAPLEGDMEKTCDILLLVRPDYTIYDEVRKTRDFEIFADMRMAGVGMVGVVHASKPIDAIQRLIGRVELGVIPQVVDTVIFIKDGKIQKVYEIDFTVKVPYG | failed
31 | LSEVEFVEFQKENFSLLIDARSPREFLHSHLIGALNFYALNDEEYQEIGTIYKKNQALAKAMGASYICQNTTKHILEITQNFRIGEKVGIYCSRGGLRSKSIAVILSELGFRVVRLKGGFKAYRTFVTHYFEN | failed
32 | LSIPEDYQARLQPNRVEGSYPLVRMEFTGATVDAPLMSQISRKYNIDVSILSSDLDYAGGVKFGMMVAELFGNEQDDSAAIEYLREHNVKVEVLGYVL | not failed
33 | LSNLETAKAMIAAYNAQDVDTYVSYMTDDACEANYRGDVVREGKEGTRSGLAAAFARWPQNHAEIKDAQQVGTYVLMREHVTRGPATDGSPLVEPFDVVAVYSFEGDKCSRVEFIR | not failed
34 | LSPPRGLVAVRTPRGVLLHWDPPELVPKRLDGYVLEGRQGSQGWEVLDPAVAGTETELLVPGLIKDVLYEFRLVAFAGSFVSDPSNTANVSTSGL | not failed
35 | LTFETLAREWFAYNSPRWAESTTYKAKLYMENDLIPGIGARPVKALTRPDLVDLVRKVEARGTLNAAGKIRQWLHQIFRYGLAKGVVESNPATDLDVVAAP | failed
